Assay results reported in EP0797662B1 (NEW YORK UNIVERSITY, dated 1995).

Biological target: T1, SHC (54 kDa band, in lysates of NIH 3T3 cells expressing the EGFR/HER2 chimera) (mouse, UniProt P98083-2 1-469, limits assumed, tyrosine phosphorylated after EGF stimulation)
T1 sequence (looked up): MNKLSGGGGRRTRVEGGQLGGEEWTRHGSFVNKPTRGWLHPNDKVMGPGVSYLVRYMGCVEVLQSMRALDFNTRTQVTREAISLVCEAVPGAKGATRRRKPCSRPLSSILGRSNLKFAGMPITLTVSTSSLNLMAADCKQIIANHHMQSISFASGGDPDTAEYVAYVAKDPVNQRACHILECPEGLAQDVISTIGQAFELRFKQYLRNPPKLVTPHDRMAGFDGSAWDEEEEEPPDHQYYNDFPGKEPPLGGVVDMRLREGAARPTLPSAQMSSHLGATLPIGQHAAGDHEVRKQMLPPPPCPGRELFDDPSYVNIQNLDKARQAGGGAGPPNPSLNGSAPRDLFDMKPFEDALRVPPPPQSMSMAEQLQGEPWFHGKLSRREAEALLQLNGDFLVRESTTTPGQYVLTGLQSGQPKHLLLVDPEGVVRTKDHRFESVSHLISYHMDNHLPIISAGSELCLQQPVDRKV
Assay: blot of lysate of NIH 3T3 cells with the chimera probed with 32P-labelled GST-GRB-7 SH2

binding result: binds
B1: GST fusion protein of the GRB-7 SH2 domain (amino acids 419-535) in pGSTag (other, mouse, UniProt Q03160 419-535, looked up)
chain: CSGSSLSAAIHRTQPWFHGRISREESQRLIGQQGLVDGVFLVRESQRNPQGFVLSLCHLQKVKHYLILPSEDEGCLYFSMDEGQTRFTDLLQLVEFHQLNRGILPCLLRHCCARVAL
modifications: 32P-phosphate at the protein kinase A site of the vector when used as the probe
notes: range 419-535; also called GST-GRB-7-SH2; [32P]GRB-7 SH2 domain; not shown: glutathione S-transferase of the pGSTag vector; protein kinase A phosphorylation site and linker of pGSTag
